Consider one substance from patent publication US20040229366A1.

This assay addresses AP1 expressed in planta (35S::AP1 transgene, or ectopically activated in the tfl mutant) (Arabidopsis thaliana) (UniProt P35631). In words: cell-based or functional assay.

Chain of AP1 expressed in planta (35S::AP1 transgene, or ectopically activated in the tfl mutant) (Arabidopsis thaliana) (P35631 whole entry, change not shown): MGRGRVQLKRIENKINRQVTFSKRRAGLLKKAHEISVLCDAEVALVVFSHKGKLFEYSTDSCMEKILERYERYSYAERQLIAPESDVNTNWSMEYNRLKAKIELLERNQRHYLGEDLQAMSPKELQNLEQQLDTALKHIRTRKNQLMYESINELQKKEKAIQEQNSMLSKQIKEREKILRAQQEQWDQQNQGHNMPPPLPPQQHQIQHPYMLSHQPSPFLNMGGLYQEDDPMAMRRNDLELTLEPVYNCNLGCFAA

For the substance “SEP3 expressed from the 35S::SEP3 transgene in Arabidopsis (from UniProt O22456 1-251)”, the rosette leaves formed before flowering, tfl mutation in combination with the 35S::SEP3 transgene (rosette leaves) came to 2 and the rosette leaves produced before flowering, 35S::AP1 35S::SEP3 doubly transgenic plants (rosette leaves) came to 2.
